Data reported in patent US20160032001A1 (APEXIGEN, published 2016).
Residue numbers refer to the chain shown, from its start.

T1: RANKL expressed on the surface of 293 cells (UniProt O14788 1-317, limits assumed)
T1 construct: whole, on cells; also called RANKL-transfected 293 cells; cells expressing RANKL
T1 sequence (looked up): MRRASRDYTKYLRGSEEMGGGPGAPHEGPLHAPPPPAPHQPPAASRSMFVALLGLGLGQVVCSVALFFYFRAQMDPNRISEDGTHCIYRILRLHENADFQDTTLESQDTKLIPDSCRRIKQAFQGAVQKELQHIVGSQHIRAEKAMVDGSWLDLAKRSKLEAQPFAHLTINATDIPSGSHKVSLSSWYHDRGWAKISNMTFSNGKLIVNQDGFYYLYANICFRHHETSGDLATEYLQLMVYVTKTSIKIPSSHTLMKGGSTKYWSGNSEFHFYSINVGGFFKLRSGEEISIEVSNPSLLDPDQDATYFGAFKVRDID

T2: human RANKL protein (human, UniProt O14788 140-317, limits assumed)
T2 sequence (looked up): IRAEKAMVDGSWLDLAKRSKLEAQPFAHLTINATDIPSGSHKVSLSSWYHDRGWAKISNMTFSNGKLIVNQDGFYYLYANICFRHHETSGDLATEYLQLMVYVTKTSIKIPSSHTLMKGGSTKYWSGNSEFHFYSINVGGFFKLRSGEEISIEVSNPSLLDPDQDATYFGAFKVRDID

B1: clone 565 rabbit anti-RANKL antibody (antibody, V domains shown)
VH: QEDLKESGGGLITPGGTLTLTCTGSGFSLSSDGMSWVRQAPGKGLEWIGYIYSGSSPYYANWAKGRFTISKTSSTTVDLKMTSLTTEDTATYFCARHLSGGGWYLDIWGPGTLVTVSL
VL: DMIQTPASVSEPVGGTVTINCQASQNIGSNLAWYQQKPGQPSKLLIYKASTLASGVPSRFKGSGSGTDFTLTISDLECADAATYYCQQAYTISNVDNAFGGGTEVVVK
B2: clone 91 rabbit anti-RANKL antibody (antibody, V domains shown)
VH: QSLEESGGRLVKPDETLTLTCTVSGSSLYNYEINWVRQAPGKGLEWIGYIDVGSGTWYASWAKGRFTISKTSTTVDLKITSPTTEDTATYFCTRKYNPMDLWGPGTLVTVSS
VL: DMTQTPASVEVAVGGTVTIKCQASQNIGSNLAWYQQKPGQPPKLLIYSTSTVASGVPSRFKGSGFGTQFTLTISGVQCDDAATYYCQQGYSAGNVNNPFGGGTEVVVK
B3: clone 388 rabbit anti-RANKL antibody (antibody, V domains shown)
VH: QSVEESGGRLVTPGTPLTLTCTVSGFSLSSGVVSWVRQAPGKGLEWIGYAWSGGPTYYANWAKGRFTISKSSTTVDLKITSPTTADTATYFCARGYNGMDPWGPGTLVTVSS
VL: DMTQTPASVEVAVGGTVTIKCQASQNIGSNLAWYQQKPGQPPKLLIYKASTLASGVPSRFRGSGSGTEFTLAISDLECADAATYYCQQGYTTKDVVNPFGGGTEVVVK
B4: clone 379 rabbit anti-RANKL antibody (antibody, V domains shown)
VH: QEQLKESGGGLVTPGGTLTLTCTASRFSLINIGMSWVRQAPGRGLEWIGYIYSGGSPYYANWAKGRFTISRTSTTVDLKMTSLTTEDTATYFCARHASDGGWYLDIWGPGTLVTVSL
VL: DMIQTPASVEVAVGGTVTINCQASQSIGSNLAWYQQKPGQPPKLLIYLASTLPSGVPSRFKGSGSGTQFTFTISDVECTDAATYYCQQAYTASNVDNAFGGGTEVVVK
B5: clone 246 rabbit anti-RANKL antibody (antibody, V domains shown)
VH: QSVKESGGGLVTPGGTLTLTCTASGLSLSGNGMSWVRQAPGKGLEWIGYIYSGSSPYYASWAKGRFTISKTSSTTVDLKMTSLTTEDTATYFCARHTSGGGWYLDIWGPGTLVTVSL
VL: B4 VL with L48S, P53A, P57S, Q68D, F69Y, F71L, T91S, A92I, D96E, A98P
B6: clone 238 rabbit anti-RANKL antibody (antibody, V domains shown)
VH: B4 VH with R26G, I30N, N31T, I32N, G33A, R43K, D77H, R95S, A97T, D99G
VL: B4 VL with S26N, L48G, A49T, P53A, P57S, S65F, T91S, A92T, N94K, V95I
B7: clone 318 rabbit anti-RANKL antibody (antibody, V domains shown)
VH: B1 VH with E2D, D3Q, I12V, G24A, S30G, D32N, N61S, R96G, L98A, S99K
VL: DMTQTPASVSAAVGGTVTINCQASQSIGSNLGWYQQKPGQPPKLLIYGASTLASGVSSRFKGSGSGTHFAFTISDVECTDAATYYCQQAYSVGNVDNAFGGGTEVVVK
B8: clone 383 rabbit anti-RANKL antibody (antibody, V domains shown)
VH: QSLEESGGDLVKPGASLTLTCTASGFSFSRYVCWVRQAPGKGLEWIGCIAAGSSGYTYYASWAKGRLTISKTSSTTLTLQMTSLTVADTATYFCARSGDSYVGYFNLWGPGTLVTVSS
VL: IVMTQTPASVEAAVGGTVTIKCQASQNIYNYLAWYQQQPGQPPKLLIYSASNLASGVSSRFKGSGSGTEFTLTISDLECGDAATYYCQSYYDSSRISYGSAFGGGTEVVVK
B9: clone 256 rabbit anti-RANKL antibody (antibody, V domains shown)
VH: QSLEESGGRLVTPGTPLTLTCTVSGFSLSKYEINWVRQAPGKGLEWIGYIDVGSGTWYASWAKGRFTISKTSTTVALRITSPTTEDTATYFCSRQYNPMDLWGPGTLVTVSS
VL: B2 VL with V11A, P41R, T49A, V52L, F65S, A92V, P98A
B10: clone 220 rabbit anti-RANKL antibody (antibody, V domains shown)
VH: B9 VH
VL: B2 VL with V11A, P41R, T49A, V52L, F65S, A92V, P98A
B11: clone 227 rabbit anti-RANKL antibody (antibody, V domains shown)
VH: B2 VH with S26F
VL: B2 VL
B12: clone 270 rabbit anti-RANKL antibody (antibody, V domains shown)
VH: QSVEESGGRLVTPGTPLTLTCTVSGFSLSSDVMSWVRQAPGKGLDWIGYIWSGGRPYYANWAKGRFTISKSSSTTVDLKITSPTTEDTAAYFCARGFGSSGLNIWGPGTLVTVSL
VL: B2 VL with S29Y, S48G, T49A, V52L, F65S, A92V, G93S, V95I, N96D, P98A
B13: clone 299 rabbit anti-RANKL antibody (antibody, V domains shown)
VH: QSLEESGGRLVTPGTPLTLTCTVSGIDLSSSLMTWVRQAPGKGLEWIGYIWSGGAPFYASWAKGRFTISKTSSTTVDLKMTSLTTEDTATYFCAARYTDSGFDALDPWGPGTLVTVSS
VL: DMTQTPASVEAAVGGTVTIKCQASQSIGSYLSWYHQKPGQPPKLLIYRASTLASGVPSRFKGSGSGTQFTLTISDLECADAATYYCQQGYSANVDNAFGGGTEVVVK
B14: clone 147 rabbit anti-RANKL antibody (antibody, V domains shown)
VH: B3 VH with L17Q, S30T, G31D, A50T, S52N, P55A, N60S, I68F, S71T, A85E
VL: B3 VL with Y47S, R61K, D94N
B15: clone 130 rabbit anti-RANKL antibody (antibody, V domains shown)
VH: B3 VH with P55A, N60S
VL: B3 VL with V95L
B16: clone 7 rabbit anti-RANKL antibody (antibody, V domains shown)
VH: B1 VH with D3Q, I12V, G24A, S30T, S31T, D32N, S55G
VL: B4 VL with I3T, S26N, L48G, P53A, P57S, A81P, T91S, A92I, A98P
B17: clone 37 rabbit anti-RANKL antibody (antibody, V domains shown)
VH: B12 VH with S30N, D45E, R55S
VL: B2 VL with N26S, P41S, T49A, T51I, V52L, F65S, A92V, V95I, N96D, P98A
B18: clone 68 rabbit anti-RANKL antibody (antibody, V domains shown)
VH: QEQLKESGGGLVKPDESLTLTCTASGFSLSSNGMSWARQAPGKGLEWIGYIYAGSSPYYANWAKGRFTISKTSSTTVDLKVTSLTTEDTATYFCARHASGGGWYLAIWGPGTLVTVSL
VL: B4 VL with N20G, A32G, L48S, P53A, P57S, Q68E, F71L, T79D, T91S, A92V

target: T1, RANKL expressed on the surface of 293 …; experiment: flow cytometry (MFI) on RANKL-transfected 293 cells

EC50	Binder
0.0831 µg/mL	B1

target: T2, human RANKL protein; experiment: surface plasmon resonance

Kd	koff	kon	Binder
0.589 nM	0.000273 s⁻¹	464000 M⁻¹ s⁻¹	B2

target: T1, RANKL expressed on the surface of 293 …; experiment: flow cytometry (MFI) on RANKL-transfected 293 cells; remark: another data set of the same source

EC50	Binder
0.665 µg/mL	B3
0.221 µg/mL	B4
1 µg/mL	B5
0.2 µg/mL	B6
0.164 µg/mL	B7
0.15 µg/mL	B8
0.135 µg/mL	B9
0.153 µg/mL	B10
0.0858 µg/mL	B11
0.0751 µg/mL	B12
0.207 µg/mL	B13

target: T2, human RANKL protein; experiment: cell-based or functional assay

IC50 in a RAW cell assay (TRAP activity, OD 405 nM)	Binder
0.002 µg/mL	B8
0.00488 µg/mL	B2

target: T2, human RANKL protein; experiment: competition ELISA: RANKL (0.5 ug/ml) pre-incubated with the antibody, then binding to coated human RANK (8 ug/ml) detected; blocked partner RANK

IC50	Binder
0.486 µg/mL	B5
0.0596 µg/mL	B6
0.0508 µg/mL	B9
0.0648 µg/mL	B10
0.0643 µg/mL	B11
0.058 µg/mL	B12

target: T2, human RANKL protein; experiment: as above; remark: another data set of the same source

IC50	Binder
0.161 µg/mL	B3
0.0614 µg/mL	B4
0.0624 µg/mL	B7
0.0621 µg/mL	B8
0.0907 µg/mL	B13

target: T2, human RANKL protein; experiment: as above; remark: another data set of the same source

IC50	Binder
0.0706 µg/mL	B14
0.078 µg/mL	B15
0.0699 µg/mL	B16
0.0645 µg/mL	B2
0.0436 µg/mL	B17
0.0766 µg/mL	B18

target: T1, RANKL expressed on the surface of 293 …; experiment: flow cytometry (MFI) on RANKL-transfected 293 cells; remark: another data set of the same source

EC50	Binder
0.0721 µg/mL	B14
0.21 µg/mL	B15
0.248 µg/mL	B16
0.0664 µg/mL	B2
0.137 µg/mL	B17
0.185 µg/mL	B18
